The text below walks through data of IntAct's records for PubMed 25239945.

The chains are these.
B1: Signal peptide peptidase (Homo sapiens), Q8TCT9 (parent)
chain: MDSALSDPHNGSAEAGGPTNSTTRPPSTPEGIALAYGSLLLMALLPIFFGALRSVRCARGKNASDMPETITSRDAARFPIIASCTLLGLYLFFKIFSQEYINLLLSMYFFVLGILALSHTISPFMNKFFPASFPNRQYQLLFTQGSGENKEEIINYEFDTKDLVCLGLSSIVGVWYLLRKHWIANNLFGLAFSLNGVELLHLNNVSTGCILLGGLFIYDVFWVFGTNVMVTVAKSFEAPIKLVFPQDLLEKGLEANNFAMLGLGDVVIPGIFIALLLRFDISLKKNTHTYFYTSFAAYIFGLGLTIFIMHIFKHAQPALLYLVPACIGFPVLVALAKGEVTEMFSYEESNPKDPAAVTESKEGTEASASKGLEKKEK
partner: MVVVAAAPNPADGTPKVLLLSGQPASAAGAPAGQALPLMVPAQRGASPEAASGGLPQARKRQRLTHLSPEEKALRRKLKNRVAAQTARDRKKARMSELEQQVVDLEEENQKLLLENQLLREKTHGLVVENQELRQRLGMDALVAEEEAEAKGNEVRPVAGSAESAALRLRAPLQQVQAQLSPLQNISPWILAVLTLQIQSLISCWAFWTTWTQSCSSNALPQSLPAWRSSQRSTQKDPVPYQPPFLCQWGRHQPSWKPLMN

Variants of B1 are the subject of this assay. To be noted: with XBP1, P17861-1.
For D265A, the “effect of a mutation on the interaction” value is “increasing interaction”.
